The values that follow come from the Human Domainome abundance scans (Beltran et al. 2025).

± gives the uncertainty stated by the source.

First the molecules themselves.
B1: Zinc finger MYM-type protein 3, residues 589 to 668; numbered along this chain, Q14202 (parent)
chain: LSCHYCHSLFSGKPEVLDWQDQVFQFCCRDCCEDFKRLRGVVSQCEHCRQEKLLHEKLRFSGVEKSFCSEGCVLLYKQDF

The series covers variants of B1. The series can be described thus: abundance fitness (aPCA) (normalised: wild type 0, dead -1); higher = more abundant; growth selection in yeast, the domain comes from the species named. The note with it: Homo sapiens.
Consider S43V, for which the abundance fitness amounted to 0.286 ± 0.11.

Turning to S43G, the abundance fitness is 0.59 ± 0.08.

S43W: the abundance fitness was -0.889 ± 0.29.

Consider G62M, for which the abundance fitness was -0.3 ± 0.32.

G62A: the abundance fitness is -0.722 ± 0.18.

For the variant F67A, the abundance fitness is -0.47 ± 0.18.

With F67C, the abundance fitness turned out to be 0.283 ± 0.18.

F67K: the abundance fitness was -0.391 ± 0.16.

On to F67E, for which the abundance fitness was -0.626 ± 0.18.

On to S11G, for which the abundance fitness was -0.169 ± 0.041.

For the variant S11R, the abundance fitness was -0.406 ± 0.044.

Consider S11E, for which the abundance fitness is -0.276 ± 0.3.

Regarding S11W, the abundance fitness was -0.565 ± 0.063.

With S11I, the abundance fitness was -0.312 ± 0.093.

On to S11M, for which the abundance fitness was -0.426 ± 0.072.

As to R39A, the abundance fitness was -0.417 ± 0.18.

For R39E, the abundance fitness was -0.159 ± 0.39.

Turning to R39M, the abundance fitness was 0.032 ± 0.39.

For R39L, the abundance fitness is -0.282 ± 0.32.

Consider R39C, for which the abundance fitness was 0.272 ± 0.21.

Regarding Y76Q, the abundance fitness was -0.179 ± 0.15.

In the case of Y76G, the abundance fitness was -0.28 ± 0.098.

On to Y76K, for which the abundance fitness was -0.048 ± 0.13.

With Y76N, the abundance fitness came to 0.757 ± 0.38.

Consider Y76H, for which the abundance fitness was determined as 0.329 ± 0.24.

For Y76V, the abundance fitness was -0.317 ± 0.14.

Regarding L58S, the abundance fitness was -0.254 ± 0.17.

On to L58R, for which the abundance fitness was found to be 0.148 ± 0.08.

As for L58E, the abundance fitness came to 0.094 ± 0.15.

On to D34E, for which the abundance fitness was -0.01 ± 0.045.

For the variant D34F, the abundance fitness was -0.192 ± 0.071.

Turning to D34W, the abundance fitness was -0.1 ± 0.054.

Turning to D34G, the abundance fitness worked out at 0.024 ± 0.04.

For the variant D34V, the abundance fitness is -0.079 ± 0.058.

As for C72P, the abundance fitness was -0.725 ± 0.39.

As for C72E, the abundance fitness is -0.644 ± 0.28.

For the variant C72V, the abundance fitness is -0.647 ± 0.15.

Consider C72T, for which the abundance fitness was -0.869 ± 0.22.

Take K77V: the abundance fitness is -0.193 ± 0.14.

In the case of K77P, the abundance fitness was -0.71 ± 0.22.

Turning to K77T, the abundance fitness was -0.108 ± 0.16.

K77G: the abundance fitness was -0.404 ± 0.12.

For V16S, the abundance fitness was 0.011 ± 0.049.

In the case of V16Q, the abundance fitness is 0.003 ± 0.055.

Consider V16G, for which the abundance fitness is -0.208 ± 0.044.

Turning to D79A, the abundance fitness was 0.089 ± 0.12.

Take D79T: the abundance fitness is -0.07 ± 0.14.

As to K65S, the abundance fitness is -1.12 ± 0.48.

Turning to K65D, the abundance fitness is -0.711 ± 0.25.

In the case of K65M, the abundance fitness came out at 0.26 ± 0.21.

As to K65E, the abundance fitness was -1.07 ± 0.26.

In the case of K65L, the abundance fitness was -0.441 ± 0.2.

With V42M, the abundance fitness was found to be 0.422 ± 0.12.

As to V42E, the abundance fitness was -0.041 ± 0.12.

On to C6Q, for which the abundance fitness is -0.892 ± 0.12.

As for C6D, the abundance fitness is -1.01 ± 0.27.

Turning to C6M, the abundance fitness was -0.325 ± 0.19.

With L17R, the abundance fitness is -0.348 ± 0.047.

On to L17M, for which the abundance fitness was 0.043 ± 0.055.

Turning to L17C, the abundance fitness is -0.077 ± 0.071.

On to L17H, for which the abundance fitness is -0.017 ± 0.068.

As to L17A, the abundance fitness is -0.035 ± 0.043.

For L17F, the abundance fitness is -0.079 ± 0.059.

As for L17P, the abundance fitness is -0.311 ± 0.071.

Take E15V: the abundance fitness is 0.057 ± 0.046.

E15K: the abundance fitness was -0.46 ± 0.078.

E15T: the abundance fitness was found to be 0.076 ± 0.062.

For E15F, the abundance fitness was -0.049 ± 0.15.

In the case of E15D, the abundance fitness is -0.155 ± 0.097.

Take E15N: the abundance fitness was -0.015 ± 0.1.

For the variant E15H, the abundance fitness was -0.017 ± 0.082.

For E15G, the abundance fitness is -0.56 ± 0.082.

E15W: the abundance fitness is -0.033 ± 0.045.

In the case of E15Q, the abundance fitness was -0.086 ± 0.068.

For the variant S8M, the abundance fitness turned out to be 0.355 ± 0.05.

As to S8P, the abundance fitness is -1.19 ± 0.17.

In the case of S8R, the abundance fitness is 0.332 ± 0.038.

As for S8L, the abundance fitness worked out at 0.062 ± 0.042.

On to S8G, for which the abundance fitness is 0.248 ± 0.041.

In the case of S8D, the abundance fitness was determined as 0.076 ± 0.057.

Turning to V41L, the abundance fitness is -0.181 ± 0.32.

On to F10D, for which the abundance fitness is -0.623 ± 0.079.

With F10W, the abundance fitness is -0.298 ± 0.054.

As for S2G, the abundance fitness turned out to be 0.157 ± 0.044.

Turning to S2L, the abundance fitness came to 0.081 ± 0.043.

For the variant S2K, the abundance fitness is 0.354 ± 0.045.

In the case of S2V, the abundance fitness was found to be 0.135 ± 0.049.

Turning to S2W, the abundance fitness is -0.069 ± 0.06.

With L75E, the abundance fitness worked out at 0.268 ± 0.11.

In the case of L75K, the abundance fitness is 0.318 ± 0.23.

On to L75C, for which the abundance fitness worked out at 0.373 ± 0.21.

On to E51T, for which the abundance fitness is -0.096 ± 0.18.

E51A: the abundance fitness is -0.394 ± 0.16.

Turning to E51I, the abundance fitness is -0.546 ± 0.32.

With H4T, the abundance fitness worked out at 0.19 ± 0.043.

In the case of H4N, the abundance fitness is 0.225 ± 0.054.

Take H4R: the abundance fitness worked out at 0.115 ± 0.038.

For the variant H4C, the abundance fitness is 0.26 ± 0.051.

Regarding K57W, the abundance fitness is -0.756 ± 0.2.

K57E: the abundance fitness is -0.256 ± 0.17.

As to K57V, the abundance fitness was -0.192 ± 0.12.

Take K57P: the abundance fitness was -0.804 ± 0.26.

Consider K57L, for which the abundance fitness was -0.016 ± 0.15.

Turning to L9F, the abundance fitness is -0.062 ± 0.061.

For L9W, the abundance fitness is -0.095 ± 0.044.

With L9P, the abundance fitness stood at 0.15 ± 0.049.

As for L9T, the abundance fitness worked out at 0.083 ± 0.042.

For L9K, the abundance fitness was -0.096 ± 0.056.

On to C32Q, for which the abundance fitness was -0.08 ± 0.055.

Take C32T: the abundance fitness was -0.108 ± 0.047.

As to C32I, the abundance fitness is -0.113 ± 0.08.

Consider C32D, for which the abundance fitness is -0.521 ± 0.11.

L74I: the abundance fitness was -0.381 ± 0.35.

Take L74Q: the abundance fitness came to 0.244 ± 0.15.

Take L74H: the abundance fitness was found to be 0.041 ± 0.3.

On to L74N, for which the abundance fitness worked out at 0.453 ± 0.22.

On to L74W, for which the abundance fitness is 0.081 ± 0.13.

Consider L74P, for which the abundance fitness was -0.205 ± 0.43.

As for L74D, the abundance fitness is 0.145 ± 0.13.

In the case of C31P, the abundance fitness was -1.02 ± 0.18.

Consider C31R, for which the abundance fitness is -0.901 ± 0.08.

In the case of C31V, the abundance fitness is -1.14 ± 0.15.

For C31Q, the abundance fitness was -0.668 ± 0.1.

Regarding C31M, the abundance fitness is -0.778 ± 0.14.

C27I: the abundance fitness is -0.752 ± 0.21.

Consider C27Y, for which the abundance fitness is -0.798 ± 0.32.

Regarding C27L, the abundance fitness was -0.89 ± 0.08.

For C27W, the abundance fitness is -0.859 ± 0.072.

As for C27N, the abundance fitness was -0.706 ± 0.099.

As to C27M, the abundance fitness was -0.472 ± 0.07.

In the case of C27H, the abundance fitness was -0.517 ± 0.11.

Take C27E: the abundance fitness was -0.721 ± 0.062.

S66R: the abundance fitness is -0.059 ± 0.085.

Consider S66K, for which the abundance fitness worked out at 0.067 ± 0.11.

For S66Q, the abundance fitness is -0.618 ± 0.35.

Turning to S66T, the abundance fitness is -0.617 ± 0.28.

For S66V, the abundance fitness is -0.235 ± 0.14.

Regarding S66A, the abundance fitness is -0.222 ± 0.15.

Consider V23W, for which the abundance fitness is 0.134 ± 0.044.

As for V23L, the abundance fitness amounted to 0.155 ± 0.04.

Take V23Y: the abundance fitness was -0.164 ± 0.073.

Regarding H47S, the abundance fitness was -0.098 ± 0.14.

With H47C, the abundance fitness stood at 0.345 ± 0.4.

Turning to S61M, the abundance fitness amounted to 0.02 ± 0.17.

With S61P, the abundance fitness is -0.424 ± 0.24.

With S61G, the abundance fitness is 0.282 ± 0.077.

On to S61V, for which the abundance fitness is -0.389 ± 0.18.

Consider S61K, for which the abundance fitness was -0.096 ± 0.16.

With S61E, the abundance fitness came out at 0.293 ± 0.081.

In the case of H7F, the abundance fitness worked out at 0.165 ± 0.15.

For H7W, the abundance fitness was -0.187 ± 0.088.

Consider H7Q, for which the abundance fitness is -0.12 ± 0.088.

As for H7A, the abundance fitness was 0.154 ± 0.042.

Turning to Q25D, the abundance fitness was determined as 0.085 ± 0.056.

For the variant Q25M, the abundance fitness was 0.198 ± 0.059.

In the case of Q25K, the abundance fitness turned out to be 0.113 ± 0.05.

Turning to Q25H, the abundance fitness is 0.122 ± 0.064.

In the case of C3R, the abundance fitness is -0.949 ± 0.063.

Turning to C3A, the abundance fitness was -0.906 ± 0.078.

With C3L, the abundance fitness is -0.896 ± 0.065.

F24D: the abundance fitness was -0.376 ± 0.064.

On to F24V, for which the abundance fitness amounted to 0.133 ± 0.041.

Take F24I: the abundance fitness amounted to 0.072 ± 0.078.

Turning to C48V, the abundance fitness was -0.741 ± 0.18.

Consider C48P, for which the abundance fitness came to 0.207 ± 0.23.

Consider C48L, for which the abundance fitness is -0.578 ± 0.23.

As to C48K, the abundance fitness is 0.19 ± 0.34.
